Measured values published in US20180222992A1 (Hoffmann-La Roche, published 2018).

Columns and labels:
A-beta peptide (1-40) [1] = biological target: T1, A-beta peptide (1-40) (human); test: BIAcore; after 14 days, pH 7.4, 37° C., PBS buffer, relative to untreated control
T1 construct: also called Aβ(1-40); Aβ40
Method: (§1) After incubation ended, samples were analyzed for relative active concentration (BIAcore), aggregation (SEC) and fragmentation (capillary electrophoresis or SDS-PAGE) and compared with the untreated control.

[2] = biological target: T2, human transferrin receptor (human, UniProt P02786 89-760); test: as above
T2 construct: also called human TfR; Recombinant His6-tagged human transferrin receptor (R&D systems, cat. no 2474-TR-050)
T2 sequence (P02786 89-760 limits assumed): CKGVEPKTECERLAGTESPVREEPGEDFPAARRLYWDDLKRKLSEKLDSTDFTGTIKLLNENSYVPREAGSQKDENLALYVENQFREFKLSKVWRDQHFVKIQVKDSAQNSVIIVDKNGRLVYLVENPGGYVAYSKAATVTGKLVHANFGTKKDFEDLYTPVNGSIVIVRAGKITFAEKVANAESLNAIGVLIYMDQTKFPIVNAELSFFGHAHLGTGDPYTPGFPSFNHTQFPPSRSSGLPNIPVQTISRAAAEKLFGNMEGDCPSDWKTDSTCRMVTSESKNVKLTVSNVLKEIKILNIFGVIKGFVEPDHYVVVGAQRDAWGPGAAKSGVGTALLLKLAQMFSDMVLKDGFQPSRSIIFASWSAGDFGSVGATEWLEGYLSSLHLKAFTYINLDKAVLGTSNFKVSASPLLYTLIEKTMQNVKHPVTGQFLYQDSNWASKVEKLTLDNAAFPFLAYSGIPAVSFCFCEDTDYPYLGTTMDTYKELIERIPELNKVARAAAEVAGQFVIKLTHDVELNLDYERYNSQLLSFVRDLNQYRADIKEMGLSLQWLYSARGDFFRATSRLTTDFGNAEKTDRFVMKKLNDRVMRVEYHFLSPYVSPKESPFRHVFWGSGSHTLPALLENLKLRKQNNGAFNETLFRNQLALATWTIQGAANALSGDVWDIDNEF
Method: as §1

A-beta = A-beta (human); test: cell-based or functional assay
A-beta peptide (1-40) [3] = biological target: T1, A-beta peptide (1-40); test: BIAcore; after 14 days, pH 6.0, 40° C., His/NaCl buffer, relative to untreated control
Method: as §1

[4] = biological target: T2, human transferrin receptor; test: as above
Method: as §1

B1: Antibody 0012 (bispecific antibody, human IgG1, kappa)
chain 1: DIVLTQSPATLSLSPGERATLSCRASQSVSSSYLAWYQQKPGQAPRLLIYGASSRATGVPARFSGSGSGTDFTLTISSLEPEDFATYYCLQIYNMPITFGQGTKVEIKRTVAAPSVFIFPPSDRKLKSGTASVVCLLNNFYPREAKVQWKVDNALQSGNSQESVTEQDSKDSTYSLSSTLTLSKADYEKHKVYACEVTHQGLSSPVTKSFNRGEC
chain 2: not shown
chain 3: QSMQESGPGLVKPSQTLSLTCTVSGFSLSSYAMSWIRQHPGKGLEWIGYIWSGGSTDYASWAKSRVTISKTSTTVSLKLSSVTAADTAVYYCARRYGTSYPDYGDASGFDPWGQGTLVTVSSASVAAPSVFIFPPSDEQLKSGTASVVCLLNNFYPREAKVQWKVDNALQSGNSQESVTEQDSKDSTYSLSSTLTLSKADYEKHKVYACEVTHQGLSSPVTKSFNRGEC
chain 4: not shown
notes: knob-into-hole; The anti-A-beta light chain occurs twice
- relative A-beta peptide (1-40) binding by BIAcore (A-beta peptide (1-40) [1]): 82%
- relative human transferrin receptor binding by BIAcore [2]: 78%
- IL-8 [ng/ml], U937-cell assay (A-beta): 7 ng/mL
- IP-10 [ng/ml], U937-cell assay (A-beta): 5.3 ng/mL
- relative A-beta peptide (1-40) binding by BIAcore (A-beta peptide (1-40) [3]): 87%
- relative human transferrin receptor binding by BIAcore [4]: 101%

B2: Antibody 0015 (bispecific antibody)
light 1: DIVLTQSPATLSLSPGERATLSCRASQSVSSSYLAWYQQKPGQAPRLLIYGASSRATGVPARFSGSGSGTDFTLTISSLEPEDFATYYCLQIYNMPITFGQGTKVEIKRTVAAPSVFIFPPSDRKLKSGTASVVCLLNNFYPREAKVQWKVDNALQSGNSQESVTEQDSKDSTYSLSSTLTLSKADYEKHKVYACEVTHQGLSSPVTKSFNRGEC
heavy 1: not shown
light 2: AIQLTQSPSSLSASVGDRVTITCRASQSISSYLAWYQQKPGKAPKLLIYRASTLASGVPSRFSGSGSGTDFTLTISSLQPEDFATYYCQQNYASSNVDNTFGGGTKVEIKSSASTKGPSVFPLAPSSKSTSGGTAALGCLVKDYFPEPVTVSWNSGALTSGVHTFPAVLQSSGLYSLSSVVTVPSSSLGTQTYICNVNHKPSNTKVDKKVEPKSC
heavy 2: not shown
notes: knob-into-hole
- relative A-beta peptide (1-40) binding by BIAcore (A-beta peptide (1-40) [1]): 86%
- relative human transferrin receptor binding by BIAcore [2]: 85%
- IP-10 [ng/ml], U937-cell assay (A-beta): 5 ng/mL
- relative A-beta peptide (1-40) binding by BIAcore (A-beta peptide (1-40) [3]): 96%
- relative human transferrin receptor binding by BIAcore [4]: 91%

B3: Antibody 0024 (bispecific antibody, human IgG1, kappa)
chain 1: not shown
chain 2: not shown
chain 3: AIQLTQSPSSLSASVGDRVTITCRASQSISSYLAWYQQKPGKAPKLLIYRASTLASGVPSRFSGSGSGTDFTLTISSLQPEDFATYYCQQNYASSNVDNTFGGGTKVEIKSSASTKGPSVFPLAPSSKSTSGGTAALGCLVKDYFPEPVTVSWNSGALTSGVHTFPAVLQSSGLYSLSSVVTVPSSSLGTQTYICNVNHKPSNTKVDKKVEPKSC
chain 4: not shown
notes: as for B1
- relative A-beta peptide (1-40) binding by BIAcore (A-beta peptide (1-40) [1]): 101%
- relative human transferrin receptor binding by BIAcore [2]: 90%
- IL-8 [ng/ml], U937-cell assay (A-beta): 8 ng/mL
- IP-10 [ng/ml], U937-cell assay (A-beta): 5.2 ng/mL
- relative A-beta peptide (1-40) binding by BIAcore (A-beta peptide (1-40) [3]): 97%
- relative human transferrin receptor binding by BIAcore [4]: 93%

B4: Antibody 0020 (bispecific antibody, human IgG1, kappa)
chain 1: DIVLTQSPATLSLSPGERATLSCRASQSVSSSYLAWYQQKPGQAPRLLIYGASSRATGVPARFSGSGSGTDFTLTISSLEPEDFATYYCLQIYNMPITFGQGTKVEIKRTVAAPSVFIFPPSDRKLKSGTASVVCLLNNFYPREAKVQWKVDNALQSGNSQESVTEQDSKDSTYSLSSTLTLSKADYEKHKVYACEVTHQGLSSPVTKSFNRGEC
chain 2: not shown
chain 3: not shown
- IL-8 [ng/ml], U937-cell assay (A-beta): 7 ng/mL
- IP-10 [ng/ml], U937-cell assay (A-beta): 4.5 ng/mL
